Assay results from patent US20260242419A1, “A CYCLIC PEPTIDE FOR TRAPPING INTERLEUKIN-1 BETA” (Merck Sharp & Dohme LLC, priority 2023, published 2026).
Starred links: 1 amine or outer side, 2 acyl side, 3 side chain; linkers in the order of their positions; H or OH if unused. Non-standard residues stand in square brackets, D forms with d. 3Pal4Ph4CO2H = 4-[5-[(2S)-2-amino-2-carboxy-ethyl]-2-pyridyl]benzoic acid, O=C([C@H](Cc1ccc(-c2ccc(C(=O)[*:3])cc2)nc1)N[*:1])[*:2]; dProc3CH2Pyrim = (2R,3S)-3-(pyrimidin-5-ylmethyl)pyrrolidine-2-carboxylic acid, O=C([C@H]1[C@@H](Cc2cncnc2)CCN1[*:1])[*:2]; TyrEtNAc = (2S)-3-[4-(2-acetamidoethoxy)phenyl]-2-amino-propanoic acid, CC(=O)NCCOc1ccc(C[C@H](N[*:1])C(=O)[*:2])cc1; Trp(βS-Me,4-F) = C[C@@H](c1c[nH]c2cccc(F)c12)[C@H](N)C(=O)O; Bip(4'-COOH) = N[C@@H](Cc1ccc(-c2ccc(C(=O)O)cc2)cc1)C(=O)O; Ala(1-bicyclo(1.1.1)pentyl) = N[C@@H](CC12CC(C1)C2)C(=O)O; dPro(4R-Bzl(4-F)) = O=C(O)[C@H]1C[C@@H](Cc2ccc(F)cc2)CN1; Ala(morpholin-4-yl) = N[C@@H](CN1CCOCC1)C(=O)O; Ala(pyrimidin-5-yl) = N[C@@H](Cc1cncnc1)C(=O)O; Phe(4-COOH) = N[C@@H](Cc1ccc(C(=O)O)cc1)C(=O)O; Pro(cis-4-F) = O=C(O)[C@@H]1C[C@H](F)CN1; 4Pal = N[C@@H](Cc1ccncc1)C(=O)O; Dab = NCC[C@H](N)C(=O)O; Aib = CC(C)(N)C(=O)O

Target: Recombinant human IL-1β (BioLegend 579404) (human, UniProt P01584 117-269)
Experiment: cell-based or functional assay

B1: SEQ ID NO: 27 (peptide)
peptide: cyclo([Bip(4'-COOH)][4Pal][Phe(4-COOH)]G[Pro(cis-4-F)][Trp(βS-Me,4-F)][Aib]EW[Aib]FQSG[dProc3CH2Pyrim])
SMILES: C[C@@H](c1c[nH]c2cccc(F)c12)[C@@H]1NC(=O)[C@@H]2C[C@H](F)CN2C(=O)CNC(=O)[C@H](Cc2ccc(C(=O)O)cc2)NC(=O)[C@H](Cc2ccncc2)NC(=O)[C@H](Cc2ccc(-c3ccc(C(=O)O)cc3)cc2)NC(=O)[C@H]2[C@@H](Cc3cncnc3)CCN2C(=O)CNC(=O)[C@H](CO)NC(=O)[C@H](CCC(N)=O)NC(=O)[C@H](Cc2ccccc2)NC(=O)C(C)(C)NC(=O)[C@H](Cc2c[nH]c3ccccc23)NC(=O)[C@H](CCC(=O)O)NC(=O)C(C)(C)NC1=O
MRC5 IC50: 0.098 nM

B2: SEQ ID NO: 24 (peptide)
peptide: cyclo([Bip(4'-COOH)][4Pal][Phe(4-COOH)]G[Pro(cis-4-F)][Trp(βS-Me,4-F)][Aib]EW[Aib][Ala(pyrimidin-5-yl)]Q[Ala(morpholin-4-yl)]G[dPro(4R-Bzl(4-F))])
SMILES: C[C@@H](c1c[nH]c2cccc(F)c12)[C@@H]1NC(=O)[C@@H]2C[C@H](F)CN2C(=O)CNC(=O)[C@H](Cc2ccc(C(=O)O)cc2)NC(=O)[C@H](Cc2ccncc2)NC(=O)[C@H](Cc2ccc(-c3ccc(C(=O)O)cc3)cc2)NC(=O)[C@H]2C[C@@H](Cc3ccc(F)cc3)CN2C(=O)CNC(=O)[C@H](CN2CCOCC2)NC(=O)[C@H](CCC(N)=O)NC(=O)[C@H](Cc2cncnc2)NC(=O)C(C)(C)NC(=O)[C@H](Cc2c[nH]c3ccccc23)NC(=O)[C@H](CCC(=O)O)NC(=O)C(C)(C)NC1=O
MRC5 IC50: 0.049 nM

B3: SEQ ID NO: 25 (peptide)
peptide: cyclo([TyrEtNAc][Ala(1-bicyclo(1.1.1)pentyl)][Phe(4-COOH)]G[Pro(cis-4-F)][Trp(βS-Me,4-F)][Aib]EW[Aib][Ala(pyrimidin-5-yl)]Q[Dab]G[dPro(4R-Bzl(4-F))])
SMILES: CC(=O)NCCOc1ccc(C[C@@H]2NC(=O)[C@H]3C[C@@H](Cc4ccc(F)cc4)CN3C(=O)CNC(=O)[C@H](CCN)NC(=O)[C@H](CCC(N)=O)NC(=O)[C@H](Cc3cncnc3)NC(=O)C(C)(C)NC(=O)[C@H](Cc3c[nH]c4ccccc34)NC(=O)[C@H](CCC(=O)O)NC(=O)C(C)(C)NC(=O)[C@H]([C@@H](C)c3c[nH]c4cccc(F)c34)NC(=O)[C@@H]3C[C@H](F)CN3C(=O)CNC(=O)[C@H](Cc3ccc(C(=O)O)cc3)NC(=O)[C@H](CC34CC(C3)C4)NC2=O)cc1
MRC5 IC50: 0.053 nM

B4: SEQ ID NO: 26 (peptide)
peptide: cyclo([3Pal4Ph4CO2H][4Pal][Phe(4-COOH)]G[Pro(cis-4-F)][Trp(βS-Me,4-F)][Aib]EW[Aib][Ala(pyrimidin-5-yl)]Q[Dab]G[dPro(4R-Bzl(4-F))])
SMILES: C[C@@H](c1c[nH]c2cccc(F)c12)[C@@H]1NC(=O)[C@@H]2C[C@H](F)CN2C(=O)CNC(=O)[C@H](Cc2ccc(C(=O)O)cc2)NC(=O)[C@H](Cc2ccncc2)NC(=O)[C@H](Cc2ccc(-c3ccc(C(=O)O)cc3)nc2)NC(=O)[C@H]2C[C@@H](Cc3ccc(F)cc3)CN2C(=O)CNC(=O)[C@H](CCN)NC(=O)[C@H](CCC(N)=O)NC(=O)[C@H](Cc2cncnc2)NC(=O)C(C)(C)NC(=O)[C@H](Cc2c[nH]c3ccccc23)NC(=O)[C@H](CCC(=O)O)NC(=O)C(C)(C)NC1=O
MRC5 IC50: 0.035 nM
